# Data: the nanobody polyreactivity screen of Harvey et al. (2022)
# Test: yeast display, Sf9 membrane polyspecificity reagent, FACS + sequencing; frameworks hold sequencing errors
# Procedure, shortened: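 Genes from sorted yeast were amplified by colony PCR, read by MiSeq 2 × 250 sequencing and filtered on CDR length. These cells carried a synthetic nanobody library in Saccharomyces cerevisiae BJ5465 and were sorted by FACS into low and high (top ~1%) gates on anti-HA and streptavidin fluorescence. Polyreactivity is labelled according to the gate of origin.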
row,Sequence,polyreactivity (PSR sort gate)
1,QVQLVESGGGLVQAGGSLRLRCAASGSIFWWYTMGWYRQAPGKERELVASISWSGTSTYYADSVKGRFTISRDNAKYTVYLQMNSLKPEDTALYYCNAVVYWPGTPYTHDDWGQGTQVTVSS,low polyreactivity
2,QVQLVESGGGLVQAGGSLRLRCAASGSTFAWYAMGWYRQAPGKERELVAAISRTGRTYYADSVKGRFTISRDNAKNTVYLQMNSLKPEDTAVYYCAARIERFYRDQRYDYWGQGTQVTVSS,high polyreactivity
3,QVQLVESGGGLVQAGGSLRLRCAASGSTFFRYAMGWYRPAPGKERELLAAITSGGITNYADSVKGRFTISRDNAKNTVYLQMHSLKPEDTAVYYCAKRRTYPGKGRFNYWGQGTQVTVSS,low polyreactivity
4,QVQLVESGGGLVQAGGSLRLRCAASGSTFGYNAMGWYRQAPGKESELVAAISSSGGTTYYADSVKARFTISRDNAKNTVYLQMNSLKPEDTAVYYCAADHTVGRYEFEFWGQGTQVTVSS,low polyreactivity
5,QVQLVESGGGLVQAGGSLRLRCAASGSTFNRYAMGWYRQAPWKERELVAAINWRGGRTYYADSVKGRFTISRDNAKNTVYLQMNSLKPEDTAVYYCNADVTSLTRVHGRFIVSDDDYWGQGTQVTVSS,low polyreactivity
6,QVQLVESGGGLVQAGGSLRLRCAASGSTIRCYAMGWYRQAPGKERELVAAIRRGGSTYYADSVKGRFTISRDNAKNTVYLQKNSLKPEVTAVYYCAAEPGYYSRQDYRVYRLYYWGQGTQVTVSS,high polyreactivity
7,QVQLVESGGGLVQAGGSLRLRCAASGSTYTVYAMGWYRQAPRKDRELVAAIRDGSSTNYADSVKGRFTISRDNAKNTVYLQRNSLKPEDTAVYYCNAPYPPTGYGDDDYWGQGTQVTVSA,low polyreactivity
8,QVQLVESGGGLVQAGGSLRLRCAASGYIIKYNAMGWYRQAPGKERELVAAISSIGGRTYYADSVKGRFTISRDNAKNTVYLQMNSLKPEDTAVYYCNAVGGRYTGWRYDYWGQGPQVTVSS,high polyreactivity
9,QVQLVESGGGLVQAGGSLRLRCASSGSIFYWYAMGWYRQAPGKERELVAAISRSGGSTYYADSVKGRFTISRDNAKNTVYLQMNSLKPEDTAVYYCATELSYRHGYWGQGTQVTVSS,high polyreactivity
10,QVQLVESGGGLVQAGGSLRLRCDASGRTFFKNAMGWYRQAPGKERELVAAITSTGGRTYYADSVKGRFPISRDTAKNNVYVEMNSLKPEDTAVYYCAASNFYSGYYYWRQGTQVTVSS,high polyreactivity
11,QVQLVESGGGLVQAGGSLRLRCGASGFIFDQYAMGWYRQAPGKERELVAAITYSGGGTYYADSVKGRFTISRDNAKNTVYLQMNSLKPEDTAVYYCADLFGYSLYDAQYDYWGQGTQVTVSS,low polyreactivity
12,QVQLVESGGGLVQAGGSLRLRFAASGSIFVRNALGWYRQAPGKERELVAAITYSGSRTYSADSVKGRFTISRDNAKNTVYLQMNSLKPEETAVYYCAKVRVLVDKWSTFYEYYYWGQGTQVTVSS,low polyreactivity
13,QVQLVESGGGLVQAGGSLRLRSAASGFTFHRYAMGWSRQAPGKERELVAGITRRSGSTFYADSVKGRFTISRDNAKNTVYLQMNSLKPEDTAVYYCAATVPGLHWIYDYWGQGTQVTVSS,high polyreactivity
14,QVQLVESGGGLVQAGGSLRLSCAAAGRIFVGYAMGWYRQAPGKERELVAGISRSGYSTYYADSVKGRFTISRDNAKNTVYLQMNSLKPEDTAVYYCAASWYKNPTRYYYWGQGTQVTVSS,high polyreactivity
15,QVQLVESGGGLVQAGGSLRLSCAAAGRTFYPYVMGWYRQAPGKERELVATISWSGGSTYYADSVKGRFTISRDNAKNSVYLQMNSLKPEDTAVYYCAALWPYGYWGQGTQVTVSS,low polyreactivity
16,QVQLVESGGGLVQAGGSLRLSCAAAGSIFYYKTMGWYRQAPGKEREMVAAISWSGGSTSYADSVKGRFTISRDNAKNTVYLQMNSLKPEDTAVYYCNVDYGVHVTARDYWGQGTQVTVSS,low polyreactivity
17,QVQLVESGGGLVQAGGSLRLSCAAAGSIVWFYAMGWYRQAPGKERELFASISSSGGSTYYADSVKGRFTISRDKAKNPGNIQMNTLKPEYTAVYYCAKRTNWGYWYNSWGQGTQVTVSS,high polyreactivity
18,QVQLVESGGGLVQAGGSLRLSCAACGFTFLRYVMGWYRQAPGKERELVAAISYSGGRTYYADSVKGRFTISRDNAKNTVYLQMNSLKPEDTAVYYCAAARPVGYPPVLKYAYWGQGTQVTVSS,high polyreactivity
19,QVQLVESGGGLVQAGGSLRLSCAACGGTFRSNAMGWYRQAPGKERELVAASTNYADSVKGRFTISRDNAKNTVYLQMNSLKPEDTAVYYCAAGPTDSQTGMDYWGQGTQVTVSS,low polyreactivity
20,QVQLVESGGGLVQAGGSLRLSCAACGIIFSWYAMGWYRQAPGKERELVAAISSSGGTTFYADSVKGRFTISRDKAKNTVYLQMNSLKPEDTAVYYCAVVGPPYYTWRVWRPAYDYWGQGTQVTVSS,high polyreactivity
21,QVQLVESGGGLVQAGGSLRLSCAACGIPLRLNAIGWYRQAPGKERELVARITWRGSTYYADSVKGRFTISRDNAKNTVYLQMNSLKPEDTAVYYCAADNRSWQPPTILPPGASDYWGQGTQVTVSS,low polyreactivity
22,QVQLVESGGGLVQAGGSLRLSCAACGITFTSNAMGWYRQAPGKERELVASISWSDDNTHYADSVKGRFTISRDNAKYTVYLQMNSLKPEDTAVYYCAADGTHPRPGTYKFDYWGQGTQVTVSS,low polyreactivity
23,QVQLVESGGGLVQAGGSLRLSCAACGRIFGGNTMGWYRQAPGKQRELVAAITVRGGSTYYADSVKGRFTISRDNAKNTVYLQMNSLKPEDTAVYYCAARRRIFPPRFGYWGQGTQVTVSS,high polyreactivity
24,QVQLVESGGGLVQAGGSLRLSCAACGRTFQWYPMGGFRQAPGTERELVAAISWSGTSTYYADSVKGRFTISRDNAKHTVYLQMNSLKPEDTAVYYCNKPCDVWDHDYDYWGQGTQVTVST,low polyreactivity
25,QVQLVESGGGLVQAGGSLRLSCAACGRTFVSYAMGWYRQAPGKERELVAAITNAGSTYYADSVKGRFTISRDNAKNTVYLQMNSLKPEDTAVYYCAATYWDYWGYGYDYWGQGTQVTVSS,high polyreactivity
26,QVQLVESGGGLVQAGGSLRLSCAACGSIFLSNSMGWYRQAPGKERELVADIDWTGGDTYYADSVKGRFTISRDNAMNTVYLQMNSLKPEDTAFYYCAADYGYRNLLTEYGYWVQGTQVTVSS,low polyreactivity
27,QVQLVESGGGLVQAGGSLRLSCAACGSIFPGYAMGWYRQAPGKERELVATIRWSSGSRTNYADSVKGRFTISRDNAKNTVYLQMNSLKPEDTAVYYCAAGSRRYKYDYWGQGTQVTVSS,high polyreactivity
28,QVQLVESGGGLVQAGGSLRLSCAACGSTFDVNARGWYRQAPGKERELVAAISWSDDDTYYADSVKGRFTISRDNAKNTDYLQKHSLKPEDTAVYYCAADGRYGWYYGVYNGEDYWGQGTQVTVSS,high polyreactivity
29,QVQLVESGGGLVQAGGSLRLSCAACGSTFGSYAMGWYRQAPGKERELVADITSGGSTYYADSVKGRFTISRDNAKNTVYLQMNSLKPEDTAVYYCAVEGWWDDYKSGAGEFNYWGQGTQVTVSS,low polyreactivity
30,QVQLVESGGGLVQAGGSLRLSCAACGSTFPYNAMGWYRQAPGKERELVAAISGNGDSTFYADSVKGRFTISRDNAKNTVYLQMNSLKPEDTAVYYCAAEQYYGYYFYGYWGQGTQVTVSS,high polyreactivity
